Results from publication PMC5923459.

Biological target: importin β1 (mouse (endogenous in 3T6)) (UniProt P70168)
Experiment: proximity ligation

Chain of wild type mouse polyomavirus (MPyV) virions, strain A3 (capsid proteins VP1, VP2 and VP3) (P03097 whole entry, looked up): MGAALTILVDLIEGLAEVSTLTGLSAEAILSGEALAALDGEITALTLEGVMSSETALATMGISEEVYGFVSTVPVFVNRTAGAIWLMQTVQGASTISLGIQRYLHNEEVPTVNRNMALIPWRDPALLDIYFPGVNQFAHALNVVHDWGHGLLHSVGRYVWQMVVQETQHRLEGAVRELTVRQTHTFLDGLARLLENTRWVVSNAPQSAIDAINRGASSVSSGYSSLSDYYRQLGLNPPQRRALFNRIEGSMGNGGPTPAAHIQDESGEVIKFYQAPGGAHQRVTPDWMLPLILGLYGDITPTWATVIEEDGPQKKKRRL
Chain of wild type mouse polyomavirus (MPyV) virions, strain A3 (capsid proteins VP1, VP2 and VP3) (P03091 whole entry, looked up): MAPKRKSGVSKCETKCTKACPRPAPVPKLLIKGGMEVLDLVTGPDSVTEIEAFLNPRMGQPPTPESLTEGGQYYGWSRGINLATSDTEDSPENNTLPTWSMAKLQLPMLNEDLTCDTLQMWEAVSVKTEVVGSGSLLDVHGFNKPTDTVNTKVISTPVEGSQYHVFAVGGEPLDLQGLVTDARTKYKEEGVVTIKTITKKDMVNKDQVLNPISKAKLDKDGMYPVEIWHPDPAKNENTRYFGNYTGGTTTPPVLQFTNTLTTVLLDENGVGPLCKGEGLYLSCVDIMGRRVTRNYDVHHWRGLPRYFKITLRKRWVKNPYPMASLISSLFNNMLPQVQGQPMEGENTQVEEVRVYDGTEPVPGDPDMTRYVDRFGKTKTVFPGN
Chain of importin β1 (mouse (endogenous in 3T6)) (P70168 whole entry): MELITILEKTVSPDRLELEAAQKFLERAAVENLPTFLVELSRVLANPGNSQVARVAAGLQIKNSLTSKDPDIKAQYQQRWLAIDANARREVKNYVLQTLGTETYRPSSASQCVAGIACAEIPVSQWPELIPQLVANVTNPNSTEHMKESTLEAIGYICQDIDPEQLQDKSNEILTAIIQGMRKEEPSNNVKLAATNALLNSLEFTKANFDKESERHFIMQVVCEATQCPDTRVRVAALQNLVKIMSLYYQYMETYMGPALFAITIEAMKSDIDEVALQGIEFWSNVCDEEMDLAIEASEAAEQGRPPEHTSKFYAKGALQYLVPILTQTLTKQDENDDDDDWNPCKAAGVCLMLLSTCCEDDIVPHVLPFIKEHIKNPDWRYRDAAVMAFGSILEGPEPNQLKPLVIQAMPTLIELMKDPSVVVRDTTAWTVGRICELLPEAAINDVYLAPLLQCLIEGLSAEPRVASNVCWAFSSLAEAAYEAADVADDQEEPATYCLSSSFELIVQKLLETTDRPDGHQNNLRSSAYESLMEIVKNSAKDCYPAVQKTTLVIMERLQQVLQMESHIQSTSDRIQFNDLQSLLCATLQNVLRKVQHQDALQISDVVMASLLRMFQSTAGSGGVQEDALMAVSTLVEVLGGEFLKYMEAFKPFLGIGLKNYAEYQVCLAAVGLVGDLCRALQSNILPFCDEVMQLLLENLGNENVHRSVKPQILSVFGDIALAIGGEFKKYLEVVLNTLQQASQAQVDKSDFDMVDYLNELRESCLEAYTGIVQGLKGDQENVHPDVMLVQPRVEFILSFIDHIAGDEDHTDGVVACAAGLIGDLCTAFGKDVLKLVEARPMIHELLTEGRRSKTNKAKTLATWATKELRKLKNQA

“wild type mouse polyomavirus (MPyV) virions, strain A3 (capsid proteins VP1, VP2 and VP3) (from UniProt P03091;P03097) (complex)” showed a PLA spots per 50 cells (spots per 50 cells) greater than 1000.
